Data taken from the nanobody polyreactivity screen of Harvey et al. (2022).

Assay: yeast display, Sf9 membrane polyspecificity reagent, FACS + sequencing; frameworks hold sequencing errors
Outline: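 A synthetic nanobody library was expressed on Saccharomyces cerevisiae BJ5465 by galactose induction for 36–48 hours. The library was stained for 1 hour at 4 °C with 10% biotinylated, detergent-solubilized Sf9 membrane reagent and enriched with streptavidin microbeads before FACS. Low and high (top ~1%) gates were set on anti-HA fluorescence for expression and streptavidin fluorescence for reagent binding, and each polyreactivity label reflects the gate of origin.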

| Sequence | polyreactivity (PSR sort gate) |
| --- | --- |
| QVQLVESGGGLVQEGGSLRLSCAASGRTFADYTMGWYRQAPGKERELVAAISFSGGSTYYEDSVKGRFTISRDNAKNTVYLQMNSLKPEDTAFYYCAAGHKRRAPRYYYWGQGTQVTVSS | high polyreactivity |
| QVQLVESGGGLVQAGGSLRLSCAASGIIFQRNDMGWYRQAPGKERELDANIRDGGITYADSVKGRFTISRDNAKNTVYLQMNSLKPEDTAVYYCARYDTSPGYGDQSSNAAYYYWGQVTQVTVSS | low polyreactivity |
| QVQLVESGGGLVQAGGSLRLSCAASGRIFSWYAMGWYRQAPGKERELVAAISWRGGSTYYADSVKGRFTISRDNAKNTVYLQMNSLKPEDTAVYYCIGGPGGYDYWGHGTQVTVSS | low polyreactivity |
| QVQLVESGGGLVQAGGSLRLSCAASGIIIRYYGMGWYRQAPGKERELVARIRWTGGSTYYADSVKGRFTISRDNAKNTVYLQMNSLKPEDTAVYYCNADPWWRFDYWGQGTQVTVSS | low polyreactivity |
| QVQLVESGGGLVQAGGSLRLSCAASGYTFSNNAMGWYRQAPGKERELFPTINSGGSTNYADSVKGRFTISRDNAKNTVYLQMNSLKPEDTAVYYCAAREDLYLYYNGQRVQYDYWGQGTQVTVSS | low polyreactivity |
| QVQLVESGGGLVQAGGSLRLSCAASGRIFDSNAMGWYRQAPGKERELVAAITYSGGGTFYADSVKGRITISRDNEKNTDYLQMNSLKPEDTAVYYCAARTSGKYRYYYWGQGTQVTVSS | high polyreactivity |
| QVQLVESGGGLVQAGGSLRLSSAASGRIFIDYAMGWYRQAPGTDRELVATITSSGGSTYYADSVKGRFTISRDNAKNTVYIQMTSLKPVDTAVYYCNAKERYYFGNYKYGYWGQGTQVTVSS | low polyreactivity |
| QVQLVESGGGLVQAGGSLRLSCAASGLTFGAYAMGWYRQAPGKEREFVAAITYSGGSTNYADSVKGRFTISRDNAKNTVYLQMNSLKPEDTAVYYCNAGYYSPWAFYPYDYWGQGTQVTVSS | high polyreactivity |
| QVQLVESGGGLVQAGGSLRLSCAASGIIFYGNAMGWYRQAPGKERELVAAISWSGSSTYYADSVKGRFTISRDNAKNTVYLQMNSLKPEDTAVYYCAADIPYQFVRDVYYWGQGTQVTLSS | high polyreactivity |
| QVQLVESGGGLVQAGGSLRLSCAASGFIFDVYAMGWYRQAPGKERELVAAISRSGGSTHYADSVKGRFTISRDNAKNTVYLQMNSLKPEDTAVYYCATGIRVGYAKYDYWGQGTQVTVSS | high polyreactivity |
| QVQLVESGGGLVQAGGSLRLSCAASGRIFVTYAMGWYRQEPGKERELVAAISASGGSTYSADSVKGRFTISRDNAKNTVYLQMNSLKPEDTAVYYCAASYRSSLRPWAEDGFWGQGTQVTVSS | high polyreactivity |
| QVQLVESGGGLVQAGGSLRISCAASGLTFYVYAMGWYRPAPGKERELVAAISGRGGRTYYADSVKGRFTISRDNAKNTVYLQMNSMKPEDTAVYYCAARYPRYRYVEYGYNYWGQGTQVTLSS | high polyreactivity |
| QVQLVESGGGLVHAGGSLRLSCAASGSIFGIYTMGWYRQAPGKERELVARINLSGGITYYADSVKGRFKISRDNAKNTVYLQMNSLKPEDTAVYYCNARTVNFPYDYWGQGTQVTVSS | low polyreactivity |
| QVQLVESGGGLVQAGGSLRLSCADSGRTFQYYAMGWSRQSPAKERELVAAITSGGSTYYADSVKGRFTISRDNAKNTVYLQMNSLKTEDTAVYYCAADFLYYSSGGKMDYWGQGTQVTVSS | low polyreactivity |
| QVQLVESGAGLVHAGGSLRLSCASSGRTFAKYAMGWYRQAPGKERELVAAISGRSGSTYYADSVKGRFTISRDNPKNTVYLQMNSLKPEDTAVYYCAASGGSRYDWVQGTQVTVSS | high polyreactivity |
| QVQLVESGGGLVQAGGSLRLSCAASGRIFTIYAMGWYRQAPGKERELVAAITRGGNTNYADSVKGRFTISRDNAKNTVYLQMNSLKPEDTAVYDGAVGSRSWPYDYWGQGSQVTVSS | high polyreactivity |
| QVQLVESGGGLVQAGGSLRLSCAASGSIFTPNAMGGYRQAPGKERELVAAISSSSDRTYYADSVKGRFTISRDNAKNTVYLQMNSLKPEDTAVYYCAAYAQQRYYWGQGTQVTVSS | high polyreactivity |
| QVQLVESGGGLVQAGGSLRLSCAASGSIFFTNAMGWYRQAPGKERELVASITSSGGSTYYADSVKGRFTISRDNAKNTVYLQMNSLKPEDTAVYYCARDRWPFWYSPSGVYRYYYWGQGTQVTVSS | low polyreactivity |
| QVQLVESGGGLVQAGGSLRLSCAASVRSFRWYTMGWYRQAPGKERELVATISWRGGSTSYADSVKGRFTISRDNAKNTVYLQMNSLKPEDNAVYYCNAVYLWWAYDYWGQGTQVTVSS | high polyreactivity |
| QVQLVESGGGIVQAGGSLRLSCAASGFTFDYYAMGWYRQAPGKERELVAAISWRGTTTYYADSVKGRFTISRDNAKNTVYLQMNSLKPEDTAVYYCAADSLFGHYDYWGQGTQVTVSS | low polyreactivity |
| QVQLVESGGGLVQAGGSLRLSCAASGSIFYQYAMGWYRQAPGKERELVAAISRSGGSTYYADSVKGRFTISRDNAKNTVYLQMISLKPEDTAVYYCAARAVRAAYDYWGLGTQVTVSS | low polyreactivity |
| QVQLVESGGGLVQAGGSLRISCAASGSTFDGNAMGWYRQAPGKERELVAAISDGDSTTNADSVKGRFTISRDNAKNTVYLQMNSLKPEDTAVYYCAARSPGDQRLGRHYYGEFDYWGQGTQVTVSS | low polyreactivity |

| Sequence | polyreactivity (PSR sort gate) |
| --- | --- |
| QVQLVESGGGLVQAGGSLRLSCAASGRIFQYNAMGWYRQAPGKERELVAAIRRGGGSTYYADSVKGRFTISRDNAKNTVYLEMNSLKPEDTAVYYCAARRIRVSFYPEYDYWGQGTQVTVSS | low polyreactivity |
| QVQLVESGGGLVQAGGSLRLSCAASGFTIRWYTMGWYRQAPGKERELVAAISRGGSTNYADSVKGRFTISRDNAKNTVYLQMNSLKPEDTAVYYCATSAPLVTSSGYGYWGQGTQVTVSS | high polyreactivity |
| QVQLVESGGGLVQAGGSLRLSCAASGFTFGTYAMGWYRQAPGKERELVAAITSSGTITYYADSVKGRFTISRDNAKNTVYLQMNSLKPEDTAVYYCAARRFRRLRWGQGTQVTVSS | low polyreactivity |
| QVQLVEAGGGLVQAGGSLRLSCAASGQIFRKNARGWYSQAPGKERELVAAINSGGSTKYADSVKGRFTISRDNAKNTVYLQMNSLKPEDTAVDYCAARGRYGVPPGRAHDNWRQGTQVTVSS | high polyreactivity |
| QVQLVESGGGLVQAGGSLRLSCAASGRTFRYNAMGWYRQAPGKERELVAAITGGGSTYYADSVKGRFTISRDTAKNTVYLQMNSLKPEDTAVYYCAAANWRRIDYRYRFDYWGQGTQVTVSS | high polyreactivity |
| QVQLVESGGGLVQAGGSLRLSCAPSGSTFYRYSMGWYRHAPGKERELVAAINGGDITNYADSVKGRFTISRDNAKNTVYLQMNSLKPEDTAVYYCAARYTYWGLLRYDYWGQGTQVTVSS | high polyreactivity |
| QVQLVESGGGLVQAGGSLRLSCAASGSIFSAYAMGWYRQAPGKERELVAAISWRTGRTYYADSVKGRFTISRDNAKNTVYLQMNSLKPEDTAVYYCAVVLGVRPYDKHDYWGQGTQVTVSS | high polyreactivity |
| QGQLVESGGGLGQEGGSLRLICAASGNTFDYYVMGWYRQAPGKERELVAVITSGSSTYYADSVKGRFTISRDNAKNTVFFQMNSLQPEDTAVYYCAKTTRRPGLRSYDYWGQGTQVTVSS | high polyreactivity |
| QVQLVESGGGLVQAGGSLRLSCAASGRIFYYYAMGRYRQAPGKERELVAAITQSGGSTYYADSVKGRFTISRDNAKNTVYLQMNSLKPEDTAVYYCNAVLSSNTKWRYPGDYWGQGTQVTVSS | low polyreactivity |
| QVQLVESGGGLVQAGGSLRLSSAASGIIFGVYGMGWYRPAPGKERELVASIRYSSVRTYYADSVKGRFTISRDNAKNTVYLQMNSLKPEDTAVYYCAKYYVWPSYGYWGQGTQVTVSS | high polyreactivity |
| QGQLVESGGGLVQAGGSLRLSCAASGITYYKYVMAWYIQAPGKERELVAAISRSSGSTYYADSVKGRFTISRDNAKNTVYLQMNSLKPEDTAVYYCARDQGKLVVPYDYWGQGTQVTVSS | high polyreactivity |
| QVQLVESGGGLVQAGGSLRLSCAASGFIFSQYARGWYRQAPGKERELVAAISYSGGSTYYADSVKGRFTISRDNAKNTVYLQMNSLKPEDTAVYYCAVSGRSYYRSDYWGQGTQVTVSS | high polyreactivity |
| QVQLVESVGCLVQAGGSLRLSCAASGFNFGYNAMGWYRQAPGKERELVAAITWIGGTTYYADSVKGRFTISRYNAKYTVYLQMNILKPEDTAVDYCNALRRGVRDPYGYWGLGTQVTVSS | high polyreactivity |
| QVQLVESGGGLVQAGGSLRLSCAASGSTFGPYVMRWYRQAPGKERELVAGISSSGGSTYYADSVKGRFTISRDNAKNTVYLQMNSLKPEDTAVYYCAAVWTTGWIDSYTAWYSYEYWGQGTQVTVSS | low polyreactivity |
| QVQLVESGGGLVQAGGSLRLSCAASGSLFYYYPMGWYRQAPGKERELVATINISDRSTYYADSVKGRFTISRDYAKNTVYLQMNSLKPEDTAVYDCAAYYYFQDYDYWGQGTQVTVSS | low polyreactivity |
| QVQLVESGGALVQAGGSLRLSCAASGRTFGSYAMGWDRQAPGKESELVAAISRRGGSTYYADSVKGRFTISRDNAKNTVYLQLNSLKPEDSAVYYCAVRKASDYYYWGQGTQVTVSS | high polyreactivity |
| QVQLVESGGGVVQAGGSLRISCAATGFIFRWYAMGWYIQAPGKERELVASINWSGSRTNYADPVKGRFTISRDNAKNTVYLQMNSLKPEDTAVYYCATYGTTSGYDSWGQGTQVTVSS | high polyreactivity |
| QVQLVESVGGLVQAGGSLRLSCAASGSNFSVYVMGWYRQAPGKERELVADISRSGGSTYYADSVKGRFTISRDNAKNTVYLQMNSLKPEDTAVYYCAASLYLSWLFEYWGQGTQVTVSS | low polyreactivity |
| QVQLVESGGGLVQAGGSLRLSCAASRLTFRYYAMGWYRKAPGKERELVAAISSRGASTYYADSVKGRFTISRDNAKNTVYLQMNSLKPEDTAVYNCAVRTYVYHWSFSSLPYDYWGQGTQVTVSS | high polyreactivity |
| QVQLVESGGGLVKAGGSLRLSCAASGSMFWSYAMGWYRQAPGKERELVAAISSGGSTNYADTVKGRFTISRDNAKNTVYLQMNSLKPEDTAVYYCSARFYTTCVRRKRYDYWGQGTQVNVSS | high polyreactivity |
| QVQLVESGGGLVQAGGSLRLSCAASGFTFNLYDMGWYRQAPGKERELVAAINWSGGTYYADSVKGRFTISRDNAKNTVYLQMNSLKPEDPAVYYCAADFPYTPWSYHHHVWSPDFDYWGQGTQVTVSS | low polyreactivity |
